In PMC5849709, “Structure-based design of chimeric antigens for multivalent protein vaccines” (Nature Communications, 2018):

B1: domains 6 and 7 of human complement factor H (CFH6/7) (domain or fragment, UniProt P08603 321-444, looked up)
chain: TLKPCDYPDIKHGGLYHENMRRPYFPVAVGKYYSYYCDEHFETPSGSYWDHIHCTQDGWSPAVPCLRKCYFPYLENGYNQNYGRKFVQGKSIDVACHPGYALPKAQTTVTCMENGWSPTPRCIR

Experiments:
Assay in all cases: SPR
[1] = target: fHbp^V1.1:PorA^151/P1.16 (N. meningitidis) (UniProt Q9JXV4)
[2] = target: fHbp^V1.1:PorA^309/P1.16 (N. meningitidis)
[3] = target: fHbp^V1.1:PorA^117/P1.16 (N. meningitidis) (UniProt Q9JXV4)
[4] = target: fHbp^V1.1:PorA^267/P1.16 (N. meningitidis) (UniProt Q9JXV4)
[5] = target: fHbp^V1.1:PorA^294/P1.16 (N. meningitidis)
[6] = target: T1, factor H binding protein (fHbp) peptide V1.1, N-terminally truncated, soluble (N. meningitidis, UniProt Q9JXV4 25-274); settings: both partners purified
T1 sequence: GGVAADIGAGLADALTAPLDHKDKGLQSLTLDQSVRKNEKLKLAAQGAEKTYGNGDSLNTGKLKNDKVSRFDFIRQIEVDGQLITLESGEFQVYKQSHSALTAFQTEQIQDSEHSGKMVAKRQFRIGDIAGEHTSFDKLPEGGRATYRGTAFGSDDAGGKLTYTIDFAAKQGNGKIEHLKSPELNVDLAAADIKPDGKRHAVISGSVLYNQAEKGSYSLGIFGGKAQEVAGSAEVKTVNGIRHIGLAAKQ

Row | Molecule | Kd [1] | Kd [2] | Kd [3] | Kd [4] | Kd [5] | Kd [6]
1 | domains 6 and 7 of human complement factor H (CFH6/7) (from UniProt P08603 321-444) (domain or fragment) | 2.3 nM | 5.5 nM | 2.3 nM | 28 nM | 2.7 nM | 
2 | B1 |  |  |  |  |  | 3.6 ± 0.4 nM
